Laboratory results reported in the nanobody polyreactivity screen of Harvey et al. (2022).

Assay: yeast display, Sf9 membrane polyspecificity reagent, FACS + sequencing; frameworks hold sequencing errors
Procedure, shortened: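 Nanobodies came from a synthetic yeast display library in Saccharomyces cerevisiae BJ5465, induced with galactose for 36–48 hours and stained for 1 hour at 4 °C with 10% biotinylated, detergent-solubilized Sf9 membrane reagent. Cells were enriched on streptavidin microbeads and then FACS-sorted, with low and high (top ~1%) gates set on anti-HA fluorescence for expression and streptavidin fluorescence for reagent binding. Each polyreactivity label reflects the gate a clone came from. Genes were amplified by colony PCR, sequenced by MiSeq 2 × 250 and filtered by CDR length.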

Sequence	polyreactivity (PSR sort gate)
QVQLVESGGGLFQAGGSLRLSCAASGIIFSSNAMGWSRQAPGKERELVAAISSSGSRTYYAASVKGRFTISRDNAKNTVYFQMNSLKPEDTAVYYCAARTISSLNHHGYWGQGTQVTVSS	high polyreactivity
QVQLVESGGGLVQAGGSLRLSCAASGSTYPYAMGWYRQAPGKERELVAAIRWRGGSTKYADSVKGRFTISRDNAKNTVYLQMNSLKPEDTAVYYCARRWYYVLHGYWGQGTQVTVSS	high polyreactivity
QVQLVESGGGLVQAGGSLRLSCAASGITFYNSAMGLYRQAPGKERELVAAISSSGGSTYYADSVKGRFTISRDNAKNTVYLQMNSLKPEDTAVYYCAAVIVLSSEDTYYYWGQGTQVTVSS	high polyreactivity
QVQLVESGGGLVQAGGSLRLSCAASGITFYRYAMGWYRQAPGKERELVAAITSGGGRTYYADSVKGRFTISRDNAKNTVYLQMNSLKPEDTAVYYCNAADYTAYGQGEYWGQGTQVTVSS	high polyreactivity
QVQLVESGGGLVQAGGSLRLSCAASGRIFGYYVMGWYRQAPGKERELVAAISRSGGSTYYADSVKGRFTISRDNAKNTVYLQMNSLKPEDTAVYYCAKRVCTYGFSGYDYWGQGTQVTVSS	high polyreactivity
QVQLVVSGGGLVQEGGSLRLSCAAYGNTFFVYAMGGYRQAPGKERELDASITLSGDTTYYADSVKGRFTISRDNAKNPVYLQMNSLKPEDNAVYYCAAKDIRYDDDYWGQGTQVNVSS	low polyreactivity
QVQLVDSGGGLVQAGGSLRLSCAASGITFWDNVMGWYRQATGKERELVATITYRGGSTYADSVKGRFTISRDNAKITVFLQMNSVKPEDTAVYYCNTGVTVDILSYDSWGQGTQVTVSS	low polyreactivity
QVQLVESGGGLLQAGGTLRLSCAASGSTFSKNAMGWYRQAPGKERELVAAISSRGGNTYYADSVKGRFTISRDNAKNTVYLQMNSLKPEDTAVYYCAKALRTYQRTGWYDYWGQGTQVTVSS	high polyreactivity
QVQIVESGGGLVQAGGSLRLSCAASGRIFRVNWIGWYRQAPGKESELVAAIRRSGGSTYYADSVKGRFTISRDNAKNTVYLQMNSLKPEDTAVYFCAAPVRQSSYTRYDSWGQGTQVTVSS	high polyreactivity
QVQLVESGGGLVQAGGSLRLSCAASGSIYLYNAMGWYRQAPGKERELVAVINGRGGTYYADSVKGRFTISRDNAKNNVYLQMNSLKPEDTAVYYCATGYAPSAWYDSVRFEDRDSWGQGTQVTVSS	low polyreactivity
QVQLVESGGGLFQAGGSLRLSCAASGFTFIPYTMGWYRQAPGKERELVASIISGGSTNYADSVKGRFTISRDNAKNTVYFQMKSLKPEDTAVYYCAAVYFYYCYGWYYYWGQGTQVTVSS	high polyreactivity
QVQLVESGGGLVQAGGSLRLSCAASGFIFRLYAMGWYRQAPGKERELVAALSSGTSTYYADSVKGRFTISRDNAKNTVYLQMNSLKPEDSAVYYCAAVPRVNWSRYVYFWYDYWGQGTQVTVSS	high polyreactivity
QFQLVESGGGLVQAGGSLRLSCAASGRIWWNAKGWYRQAPGNEREMVAAIRWSGGIKRYADSVKGRFTISRDNAKNTVYLQMNSLKREDTAVYYCDARLGGSIRSKFDYWGQGTQVTVSS	high polyreactivity
QDQLVESGGGLVQAGGSLRLSCAASGPIFLVKTMGCYIQAPGKERELVADITWRGGDTYYADSVKGRFTISRDNAKNTDYLQMNSLKPEDTAVYYCAARGLGYGYERYRLGYWGQGTQVTVSS	high polyreactivity
QVQLVESGGGLVQAGGSLRLSCAASGRTFAYNAMGWYRQAPGKERELVADITSGGSTYYADSVKGRFTISRDNAKNTVYLQMNRLKPEDTAVYYCAAYPQFWYWDYNYWGQGTQVTVSS	high polyreactivity
QVQLVESGGGLVQAGGSLRLSCAASGSILCTNAMGWYRQAPGKERELVAAITTSGASTYYADSVKGRFTISRANAKNSVYLPMNSLKPEDSAVYYCAAPSRYRYYWGNYWGQGTQVTVSS	high polyreactivity
QVQLVESGGGLVQAGGSLRLSCAASGRIFAVNAMGWYRQAPGKERELVASIRWSGGSTYYADSVKGRFTISRDNAKNTVYLQMNTLKPEDTAVYYCNKVRGKTYYGEGDYWGQGTQVTVSS	high polyreactivity
QVQLVESGGGLVQAGGSLRLSCAASGSIFYYNAMGWYIQAPGKERELVAAIRSTGSTNYADSVKGRFTISRDNAKNTVYLQMNSLKPEDTAVYYCNADYIFWLTLFDYWGQGTQVTVSS	low polyreactivity
QVQLVESGGGLVQAGGSLRLSCAASGRTLSGYVMGWYRQAPGKERELVATISNGGSTYYADSVKGRFTISRDNAKNTVYLQMNSLKPEDTAVYYCNRYWYRKHSTDPPVRYRPVGYWGQGTQVTVSS	high polyreactivity
QVQLVESGGGLVQAGGSLRLSCAASGFTFGENAMGWYRQAPGKDRELVAAITSGDGTSYADSVKGRFTISRDNAKNTVYLQMNSLKPEDTAVYSCAADVNYYQHRLYYWGLGTQVTVSS	low polyreactivity

Sequence	polyreactivity (PSR sort gate)
QVQLVESGGGLVQAGGSLRLSCAASGFIFGYYAMGWYRQAPGKERELVAAITTSAASTYYADSVKGRFTISRDNAKNTVYLQMNSLKPEDTAVYYCNAVLYKVSISEYDYWGQGTQVTVSS	high polyreactivity
QVQLVESGGGLVQAGGSLRLSCAASGSIFASNAMGWYRQAPGKERELVAAIDDDGSTDYADSVKGRFTISRDNAKNTVYLQMNSLKPEDTAVYYCAVVTFWWGWTKYRGGFYWGQGTQVTVSS	low polyreactivity
QVQLVESGGGLVQAGGSLRLSCAASGIIFRGYAMGWYREAPGKERELVAAIRDRGGSTYYADSVKGRFTISRDNAKNTVYLQMNSLKPEDTAVYYCATENRVYRHPGYDYDYWGQGTQVTVSS	low polyreactivity
QVQLVESGGGLVQAGGSLRLSCAASGIILYYYAMGWYRQAPGKERELVAAISSGGNTYYADSVKGRFTISRDNAKNTVYLQMTSLKPEDTAVYYCAAVTVIGGEYDYWGQGTQVTVSS	low polyreactivity
QVQLVESGGGLVQARGSLRLSCAASVGTFGSNNMGCYRQAPGKDRELVAAITSGVSTNYADSVKGRFTITRYIAKNTVYLQMNSLKPEDTAVNYSAAGTQAHAYVVRPIEMDYWGQGTQVTVSS	low polyreactivity
QVQLVESGGGLVQAGGSLRLSCAASGFTSGYNVMGWYRQEPGKERELVAAISWRGTSTYYADSVKGRFTISRDNAKNTVYLQMNSLKPEDTAVYYCAADRYWRLSGYEYWGQGTQVTVSS	high polyreactivity
QVQLVESGGGLVQAGGSLRLSCAASGSTFRGFAMGWYRQAPGKERELVAAISSRGASTHYADSVKGRFTISRDNANNTVYLQLTSLKPEDTAVYYCNKRQVFVSTGVYEFDYWGQGTQVTVSS	low polyreactivity
QVQLVESGGGLVQAGGSLRLSCAASGITFRRYAMGWYRQAPGKERELVAAITSSGGSTYYADSVKGRFSISRDNAKNTVYLQMNSLKPEDTAVYYCAARAYRVNWSSWYRSGYDYWGQGTQVTVSS	high polyreactivity
QVQLVESGGGLVKAGGSLRLTCAASGSIFKIYSMGWYIQAPGKERELVATITWSTGTTYYADSVKGRFTISRDNAKNTVFLQMNSLKPEDTAVYYCATEPSWYHGFIDPRGYWGQATQVTVSS	low polyreactivity
QVQLVESGGGLVHAGGSLRLSCAASGSIFEFYAMGWYRQAPGKERELVAAITWDDGSTYYADSVKGRFTISRDNAKNTVYLQMNSLKPEDTAVYYCAASASVRGGGADQYVIAFDYWGQGTQVTVSS	low polyreactivity
QVQLVESGGGLVQAGGSLRLSCAASGRILYKYAMGWYRQAPGKERELVAAISRRGGSTFYADSVKGRFTISRDNAKNTVYLQMNSLKPEDTAVYYCAAGSTRYAGWTYNYWGQGTQVTVSS	high polyreactivity
QVQRVESGGGLVQAGGSLRLSSAASGRTSRYAMGWYRQAPGKERELVAAISRSGGSTHNADSVKGRFTISRDNAKNNVYLHMNSLKPEDTAVYSCNAQQGRYWSAKGYDYWGQGTQVTVSS	high polyreactivity
QVQLVESGGGLVQAGGSLRLICAASVSTFRKYAMGRYRQAPGKEREFVAAISSSGGRTYYADSVKGRFTISRDNAKNTVYLQMNSLKPEDTAVYYCNAYFRYSYDYWGQGTQVTVSS	high polyreactivity
QVQLVESGGGLVQAGGSLRLSCAASGRTFTYYAMGWYRQAPGKERELVAAISWSGDDTYYADSVKGRFTISRDNAKNTVYLQMHSLKPEDTAVYYCAAEGGGVYSDYRENTGEDYWGQGTQVTVSS	low polyreactivity
QVQLVESGGGLGQAGGSLRLSCAASGRIFYSNVMGWYRQAHGKEREFVAAISGRTGGTYYADSVKGRFTISRDNAKNTVYLQMNSLKPEDTAVYYCAARVIYYYGSGPYDYWGQGTQVTVSS	low polyreactivity
QVQLVESGVGLVQAGGSLRLSCAASGSTLFVYTKGWSRQAPGKERELVAAITSSGGSTYYADSVKGRFTISRDKAKNTVYLQMNSLKAQDTAVYYCAAKELGSPYDYWGQGTQVTVSS	high polyreactivity
QVQLVDSGGGLVQAGGSLRLSCAASGSIFRPYARGWYRQAPWKERELVASIRWYDGSTYYADSVKGRFTSSRDNAMNTVYLQMNSLKPEDSAVYYCAADYYSQLAGIFDYWGQGTQVTVSS	low polyreactivity
QVQLVESGGGLVQAGGSLRLSCAASGRIFVGYAMGWSRQAPRNERELVAAISDRGGNTYYADSVKGRFTISRDNAKNTVYFQMNSLKPEDTAVYYCAKEVRWWYGYWGQGTQVTVSS	high polyreactivity
QVQLVESGGGLVQAGGSLRLSCAASGFTFWDYDLGWSRQATGKERELVAAISDNDGSTDYADSVKGRITISRDNVKNTVFLQMNRLKPEESAVYYCNAEIEMPSKEGDYWGLGTQVTVSS	low polyreactivity
QVQLVESGGGLVQAGGSLRLSCAASGSIFTYTMGWYRQAPGKERELVAVISRSGGRTYYADSVKGRFTISRDNAKNTVYLQMNSLKPEDTAVYYCATDGHNGYYGRYDYWGQGTQVTVSS	high polyreactivity
